Test results: patent publication US20250011397A1 (HOSPITAL FOR SICK CHILDREN, published 2025)
Where two headings read alike, the source gives them in different places.

How the values were obtained:
[1] = target: T1, SARS-CoV-2 receptor binding domain (RBD), wild type, His-tagged (BEI NR52309) (SARS-CoV-2, UniProt P0DTC2 319-541); assay: RBD KD column; method and antibody format not stated
T1 construct: also called WT RBD

[2] = target: T1, SARS-CoV-2 receptor binding domain …; assay: as above; remark: listed apart in the source
[3] = target: T2, SARS-CoV-2 Spike, prefusion S ectodomain (BEI NR52394), His-tagged (SARS-CoV-2, UniProt P0DTC2 14-1213); assay: BLI, His-tagged Spike on Ni-NTA biosensors, 1:1 fit
T2 construct: extracellular domain; also called S protein; S glycoprotein

[4] = target: T1, SARS-CoV-2 receptor binding domain …
[5] = target: T1, SARS-CoV-2 receptor binding domain …; remark: listed apart in the source
[6] = target: T1, SARS-CoV-2 receptor binding domain …; remark: listed apart in the source
[7] = target: T1, SARS-CoV-2 receptor binding domain …; remark: listed apart in the source

Binder | Kd [1] | Kd [2] | Kd [3] | koff [3] | kon [3] | RBD binding [4] | RBD binding [5] | RBD binding [6] | RBD binding [7]
mAb 120 (antibody, V domains shown, also called IgG 120) VH: QVQLVQSGAEVKKPGASVKVSCKASGYTFTSYDINWVRQAPGQGLEWMGMIDPSGGSTSYAQKFQGRVTMTRDTSTSTVYMELSSLRSEDTAVYYCAKDFGGGTRYDYWYFDLWGRGTLVTVSS VL: EIVMTQSPATLSVSPGERATLSCRASQSVSSRYLAWYQQKPGQAPRLLIYGASTRATGIPARFSGSGSGTEFTLTISSLQSEDFAVYYCQQYYTTPRTFGQGTRLEIKR | 24 nM | 24 nM | – | – | – | – | – | – | –
4A8 IgG (antibody, V domains shown, also called IgG 4A8) VH: EVQLVESGAEVKKPGASVKVSCKVSGYTLTELSMHWVRQAPGKGLEWMGGFDPEDGETMYAQKFQGRVTMTEDTSTDTAYMELSSLRSEDTAVYYCATSTAVAGTPDLFDYYYGMDVWGQGTTVTVSS VL: EIVMTQSPLSSPVTLGQPASISCRSSQSLVHSDGNTYLSWLQQRPGQPPRLLIYKISNRFSGVPDRFSGSGAGTDFTLKISRVEAEDVGVYYCTQATQFPYTFGQGTKVDIK | – | – | 1.42 nM | 0.000191 s⁻¹ | 133000 M⁻¹ s⁻¹ | – | – | – | –
mAb 254 (antibody, V domains shown, also called IgG 254) VH: EVQLLESGGGLVQPGGSLRLSCAASGFTFSSSAMHWVRQAPGKGLEWVSAIGTGGDTYYADSVKGRFTISRDNSKNTLYLQMNSLRAEDTAVYYCAREGDGYNFYFDYWGQGTLVTVSS VL: DIQMTQSPSSLSASVGDRVTITCRASQGISSYLAWYQQKPGKAPKLLIYDASSLQIGVPSRFSGSGSGTDFTLTISSLQPEDFATYYCLQSYSTPPWTFGQGTKVEIKR | 127 nM | 127 nM | – | – | – | – | – | – | –
mAb 46 (antibody, V domains shown, also called IgG 46; antibody 46) VH: EVQLLESGGGLVQPGRSLRLSCAASGFTFSSYAMSWVRQAPGKGLEWVSTIYSGGSTYYADSVKGRFTISRDNSKNTLYLQMNSLRAEDTAVYYCARGDSRDAFDIWGQGTMVTVSS VL: DIQMTQSPSSLSASVGDRVTITCRASQSISSWLAWYQQKPGKAPKLLIYDASNLETGVPSRFSGSGSGTDFTLTISSLQPEDFATYYCQQSYSTPFTFGPGTKVDIKR | 83 nM | 83 nM | – | – | – | 1.3 | 1.2 | 0.2 | 0.2
mAb 158 (antibody, V domains shown, also called IgG 158) VH: QVQLVQSGAEVKKPGASVKVSCKASGYTFTGYYMHWVRQAPGQGLEWMGWINPLNGGTNFAPKFQGRVTMTRDTSTSTVYMELSSLRSEDTAVYYCARDPGGSYSNDAFDIWGQGTLVTVSS VL: DIQMTQSPSSLSASVGDRVTITCRASQSISRYLNWYQQKPGKAPKLLIYDASNLESGVPSRFSGSGSGTDFTLTISSLQPEDFATYYCQQANSFPLTFGGGTKVDIKR | 172 nM | 172 nM | – | – | – | – | – | – | –
mAb 349 (antibody, V domains shown, also called IgG 349) VH: EVQLLESGGGLVQPGGSLRLSCAASGFTFSNYGMHWVRQAPGKGLEWVSGISSAGSITNYADSVKGRFTISRDNSKNTLYLQMNSLRAEDTAVYYCAGNHAGTTVTSEYFQHWGQGTLVTVSS VL: DIQMTQSPSSLSASVGDRVTITCRASQSISSWLAWYQQKPGKAPKLLIYDTSNLETGVPSRFSGSGSGTDFTLTISSLQPEDFATYYCQQSYTTPWTFGQGTRLEIKR | 74 nM | 74 nM | – | – | – | – | – | – | –
mAb 82 (antibody, V domains shown, also called IgG 82) VH: QVQLVQSGAEVKKPGASVKVSCKASGGSFSTSAFYWVRQAPGQGLEWMGWINPYTGGTNYAQKFQGRVTMTRDTSTSTVYMELSSLRSEDTAVYYCARSRALYGSGSYFDYWGQGTLVTVSS VL: DIQMTQSPSSLSASVGDRVTITCRASQVISNYLAWYQQKPGKAPKLLIYDASNLETGVPSRFSGSGSGTDFTLTISSLQPEDFATYYCQQSFSPPPTFGQGTRLEIKR | 206 nM | 206 nM | – | – | – | 0.6 | 0.4 | 1.4 | 0.6
mAb 108 (antibody, V domains shown) VH: QVQLVQSGAEVKKPGASVKVSCKASGYIFSRYAIHWVRQAPGQGLEWMGWMNPISGNTDYAPNFQGRVTMTRDTSTSTVYMELSSLRSEDTAVYYCAKDGSQLAYLVEYFQHWGQGTLVTVSS VL: DIQMTQSPSSLSASVGDRVTITCRASQVITNNLAWYQQKPGKAPKLLIYDASTLETGVPSRFSGSGSGTDFTLTISSLQPEDFATYYCQQSYTFPYTFGQGTKVEIKR | 72 nM | 72 nM | – | – | – | – | – | – | –
mAb 64 (antibody, V domains shown, also called IgG 64) VH: EVQLLESGGGLVQPGGSLRLSCAASGFPFSQHGMHWVRQAPGKGLEWVSAIDRSGSYIYYADSVKGRFTISRDNSKNTLYLQMNSLRAEDTAVYYCARDTYGGKVTYFDYWGQGTLVTVSS VL: DIQMTQSPSSLSASVGDRVTITCRASQGISSHLAWYQQKPGKAPKLLIYDASNLETGVPSRFSGSGSGTDFTLTISSLQPEDFATYYCQQTYSTPWTFGQGTKVEIKR | 97 nM | 97 nM | – | – | – | – | – | – | –
mAb 56 (antibody, V domains shown, also called IgG 56) VH: QVQLVQSGAEVKKPGASVKVSCKASGYTFTSYGISWVRQAPGQGLEWMGWISAYNGNTNYAQKLQGRVTMTRDTSTSTVYMELSSLRSEDTAVYYCARDIGPIDYWGQGTLVTVSS VL: DIQMTQSPSSLSASVGDRVTITCRASQGISSYLAWYQQKPGKAPKLLIYDASNLQSGVPSRFSGSGSGTDFTLTISSLQPEDFATYYCQQANSFPSTFGQGTKVEIKR | 23 nM | 23 nM | – | – | – | – | – | – | –
mAb 324 (antibody, V domains shown, also called IgG 324) VH: QVQLVQSGAEVKKPGASVKVSCKASGGTFNNYGISWVRQAPGQGLEWMGWMNPNSGNTGYAQKFQGRVTMTRDTSTSTVYMELSSLRSEDTAVYYCARVGDYGDYIVSPFDLWGRGTLVTVSS VL: DIQMTQSPSSLSASVGDRVTITCRASQSITTYLNWYQQKPGKAPKLLIYDASNLETGVPSRFSGSGSGTDFTLTISSLQPEDFATYYCQQSYSTPPTFGQGTKVEIKR | 111 nM | 111 nM | – | – | – | 0.1 | 0.2 | 1.2 | 1
mAb 236 (antibody, V domains shown, also called IgG 236) VH: QVQLVQSGAEVKKPGASVKVSCKASGGTFTSYGINWVRQAPGQGLEWMGWMNPNSGNTGYAQKFQGRVTMTRDTSTSTVYMELSSLRSEDTAVYYCASRGIQLLPRGMDVWGQGTTVTVSS VL: not shown | 145 nM | 145 nM | – | – | – | 0.1 | 0.2 | 1.2 | 1
mAb 178 (antibody, V domains shown, also called IgG 178) VH: QVQLVQSGAEVKKPGASVKVSCKASGYTFTDYHMHWVRQAPGQGLEWMGWINPNSGGTNYAQKFQGRVTMTRDTSTSTVYMELSSLRSEDTAVYYCARDISSWYEITKFDPWGQGTLVTVSS VL: EIVMTQSPATLSVSPGERATLSCKASQSVSGTYLAWYQQKPGQAPRLLIYGASTRATGIPARFSGSGSGTEFTLTISSLQSEDFAVYYCLQTHSYPPTFGQGTKVEIKR | 72 nM | 72 nM | – | – | – | – | – | – | –
mAb 128 (antibody, V domains shown) VH: QVQLVQSGAEVKKPGASVKVSCKASGYTFTHYYMHWVRQAPGQGLEWMGIINPSSSSASYSQKFQGRVTMTRDTSTSTVYMELSSLRSEDTAVYYCARDGRYGSGSYPFDYWGQGTLVTVSS VL: DIQMTQSPSSLSASVGDRVTITCRASQNISRYLNWYQQKPGKAPKLLIYDASNLETGVPSRFSGSGSGTDFTLTISSLQPEDFATYYCQQANGFPPTFGQGTKLEIKR | 57 nM | 57 nM | – | – | – | – | – | – | –
mAb 52 (antibody, V domains shown, also called IgG 52; antibody 52) VH: QVQLVQSGAEVKKPGSSVKVSCKASGYTFTSYGISWVRQAPGQGLEWMGGIIPMFGTTNYAQKFQGRVTITADKSTSTAYMELSSLRSEDTAVYYCARDRGDTIDYWGQGTLVTVSS VL: DIQMTQSPSSLSASVGDRVTITCRASQGISNNLNWYQQKPGKAPKLLIYAASSLESGVPSRFSGSGSGTDFTLTISSLQPEDFATYYCQQGNGFPLTFGPGTKVDIKR | – | – | – | – | – | 1.3 | 0.8 | 0.5 | 0.4
mAb 160 (antibody, V domains shown, also called IgG 160) VH: QVQLVQSGAEVKKPGASVKVSCKASGYTFTGHDMHWVRQAPGQGLEWMGIINPSGGSTSYAQKFQGRVTMTRDTSTSTVYMELSSLRSEDTAVYYCARANSLRYYYGMDVWGQGTMVTVSS VL: DIQMTQSPSSLSASVGDRVTITCRASQSVSSWLAWYQQKPGKAPKLLIYAASSLQSGVPSRFSGSGSGTDFTLTISSLQPEDFATYYCQQGYTTPYTFGQGTKLEIKR | 7.7 nM | 7.7 nM | – | – | – | – | – | – | –
